Experimental data from the DeepSol protein solubility set.

assay: soluble on expression in E. coli; label from the status in PepcDB or PDB records

Sequence | soluble on expression in E. coli
MVAAAAATGILSLCGSPALADSHADGAATNSPGAVSGNALQVPVDVPVNACGNTVDVIAALNPAFGNECENASDEKTDGHGGGYGEDASSSSSSSTSASSSGSHADGATEGSPGVGSGNNAQVPVDVPVNLCGNTVDVIAALNPVFGNKCENDAEEPPGYGEEEPPPPTTPPGYGEEEPPPPTHEEPPPPSGEEEPPPPSEEEHTPPAPQTEQPPALAETGSEGTLGAAAAGAVLIAGGAILYRRGRALSGRLEHHHHHH | not soluble
MSLDIENTLLKQEAWRFIDNTTINPAFDAIQSFATDDTLCRSVGARMVPPTVRGWVHEKTVSLGIQDSKLPDIDKGIAFLQEQGYRVVVRNSGGLAVVLDSGVLNLSMVLPDAERGIAIERGYETMFTLIKDMFVDCNEVIEAKEIVNSYCPGSYDLSIQGQKFAGISQRRMAKGVAVQIYLAVEGDQAARSELIRDFYTISGKDKQTKYSFPDVKPEVMGTLSDLMKENMTVNGCLVRLFNSLRHYAGKLESGTLTPEELDLFPAYYERLIARNDKVLSEGHHHHHH | soluble
MSLPNIDSLFVTRLYRAALSEHGPAIDAKEMEASCYSIAEDDEAGQGWCDENGYPGYTSYASLSDLPWRFPIFADLVKVLDAHVAAFAEDLEFDLDGKELKLEDIWINILPEGGMHASHIHPHSVISGTTYVAMPEGTSALKLEDPRSARMMASPVRRKDARQELRTFIYAKPVVGDVLLWESWLRHEVPMNMSEEDRISVSFNYSWGEGHHHHHH | soluble
MAHHHHHHMMQSKVLPTPQDVVLQGLLSLDSTVKTKTHALVSRQLDRLESYLRIKCGWSVPLSSSSTSAEAGCGSNVVRVSEYVRAFTPDGVPIVDRNGGSFNCFVCCGFGDHAMDFAPGAAKVLGKLVEHQAQHLREEDIEKTKTWGLLTSKLSPSRRAAVEEELQLLFNGVDSDAVKRKGSRTPSEASALALLRHEDNPYSTNRFANMVRKEVKMDSSPPILSRLCALEDVFLTHLEPLRRRFHAKATELALRENTPDWLRTFVFCFMYEEDDDPAAQARKEQHVRSLQRLASQYETPVTDAKTTGDGAEELPLTPAEQSKRKQAELERRAREVFAKRV | not soluble
MELTMAKELIFIDWDDTLVNRENAEDFESVTDENNTIYQMSPMFIGAVEALKQLQEKYHVVIVSSRGDLNRLRQLQLQSYDLESSIMPLENFTFEDNDNRLLFTRYGETNFPDKASFILYIQKMSGNKIKVFIDDDHTEIEAAQSKGIPTIHATHNKYLQNTEQFFSGLIHQVDNMELSHIFNKVAAEIRNNSRSISWGRQIAGFFSVHLPIAQSLENLASKLQRKSANEVSEEFDQYLKKIAYDPNKKGDIAVSLTKAKTAIDKHISAPIEIKEDQPFLNRMI | not soluble
SDTNSNQGIAFVHGTRDHREDAYGGYWKIDFIQSISQTLAKPENHYVVHCDFSQYMWHEDAANCVANQLLEFINDKNVSSLTVYTHSDGANIMRWILSNPTYDGRYMTLKRKISQVIAIAPSSGGTPLADEVLNGGIFETSLAWLLGYLSDAVKQQRVGDMLIYNEELLLGSKGRPSLSIPFKVIVGTDVYASPFSTSSYCNGYMLNSGLKIAKLYLNQCADGFLDCESQAQAGEVWFYDIDKTDYNLPLSHNQSRHSCFGLDQI | not soluble
MAHHHHHHMKSLENNEMHNLCPIHYYFNGRDYNSDTIINNVNIKYFNMDNCLGNANLHMDYLNPVLNHPTKIEHGKIKILILDAPTNDLLPLYIKEMKNYNVTDLVRTCERTYNDGEIQDAGINVHELIFPDGDAPTEDIVSNWLNIVNNVIKNNCAVAVHCVAGLGRAPVLASIVLIEFGMDPIDAIVFIRDRRKGAINKRQLQFLKEYRKKKKKKNCLRKCHFM | not soluble
MSLKHHGKIKIKHAVKVLKVSRSGFYEYMHRRPSKQQVEREILSEKIKAVFHEHKGRYGAVRITKVLHNTGIMTNTKRVGKLMHLMGLYAKGSRYKYKHYNRKGASLSRPNLINQIFKATAPNKVWLGDMTYIPTKEGTLYLAVNIDVFSRKIVGWSMSSRMQDKLVRDCFLQACGKEHPQPGLIVHTDQGSQYTSSRYQSTLRQVGAQSSMSRKGNPYDNAMMESFYKTLKRELINDAHFETRAEATQEIFKYIETYYNTKRMHSGLDYKSPKDFEKYNSEGHHHHHH | not soluble
MGSDKIHHHHHHMRIVVSGGGTGGHIYPALAMIREIERRTPCEVLYIGTENGLEADIVRRAGIPFESIEISGIRRSLSFENVKTGFRFLKSVVRVRKLLRDFQPDIVVGTGGFVCGPVLYTAAKMGYKTLVHEQNSLPGITNKFLARYVDRVALSFKGSGHHFGKNKGKTILIGNPRASEVAMLQIDPVEEKRKYGFEQDRPLIVVYGGSRGAPAINKAVVDMIPKLTETDWSLLFVTGQVHYEDIQAQLGTLPDRIQLRPFIYDLPLILKASQLVISRSGASTLAELTTLGLPSILIPSPYVTENHQEVNASSLVETGASLLIRESELTGDRLFDACTKAIADQADMSKASLALGMPNAASDLVDELLRLIQRKN | not soluble
MASYTSEQAEALLKLQFDKYAKFIDDEVWAEVEGYYHPSGVLVHKGKEAVYGNKDKSTYIAKFAEGTGKSVGTTTNAKYEGSGDYLIITADFSSETEKAGTVKGRFVQI | not soluble
MSLSSEHIQNKLALLPDQPGCYLMKDRQGTIIYVGKAKILKNRVRSYFSGTHDSKTQRLVQEIVDFEYIVTSSNVEALLLEINLIKKHDPRFNIRLKDDKTYPFIKITNERHPRLIITRQVKKDKGKYFGPYPNVYAANEVKRILDRLYPLRKCSTLPNKVCLYYHLGQCLAPCVFDVEASKYKEMQDEIVTFLNGGYKTVKNDLMKKMQEAAENMEFEKAGEFRDQINAIETTMEKQKMTMNDFVDRDVFGYAIDKGWMCVQVFFIRQGKLIERDVSQFPFYNDADEDFLTFIGQFYQKANHIPPKEIYLPDDVDSEAVQAVVPDTKIIVPQRGNKKDLVKLAYKNAKIALNEKFMLLERNEERTVGAVERLGEAMGIPTPSRVEAFDNSNIHGTDPVSAMVTFLDGKPSKNDYRKYKIKTVEGPDDYATMREVIRRRYWRVLKEELPMPDLILIDGGKGQIDSAKDVLTNELGLDIPVAGLAKDDKHRTSQLLFGDPLEIVPLERNSQEFYLLQRMQDEVHRFAITFHRQLRSKTGFQSILDGIPGVGPGRKKKLLKHFGSMKKLKEASVEEIKEAGVPLNVAEEVHKHITAFNEGHHHHHH | soluble
MSLDAAGLARSTFFYHQQRLNVPDKHIDLKEAIVEVFTRTNRRYGYRRIHAHLRQDGWNVNHKLVYKLMDELGLKSKVRAKKRYNAYQGTVSHIAENVLDRCFTPDKPNTVWTSDVTEFRIAGTKVYLSPIMDLYDRSIVSYSVSTSPNTAFTSRSLKDAITSQSPGSGLLVHTDQGIQYQHSSWRDLITSIDGIQSMSRKGNCYDNAVMENFFGHLKSEMHHGESFDGLEHFRQALDGYIHWYNHERIQKRLKGLAPMQYRNQTLEPLTAEGHHHHHH | not soluble
MGSDKIHHHHHHMDPRLLEYYNRELSYLRETGAEFAARHPKVAARLGMQGTDIADPYVERMVEAFSFLTARTQLKIDAEFPRFTQRLLEVVSPNYVTPTPSMSVAQLHPDTEEGDLAKGFTVPRDTAFFSAIPEGESTACQFRSSQDVTLWPLAIEEARLTAAPPDMPALHRYLPANIHVAGALRITLRTFGELTFSQLAGLDRLPFYLCGEERTASHLLELLHTSAIAPLAGIPGHFDGALDVNLQQPVMYEGLEPDQGLLPLAWNVFHGHNLLHEYFACPERFYFFTPTGLSAGLQKIDGGVAEIVILLNRLPPDWLIHQTNAAQFSLFCTPVINLFPRVTARIDVTHSTTEQHLVVDRTHPLDYEVFSVQEVEGLETDTTRKMAFRPLYHTRNNDEGNHGRYFSLRREPRRLSENARRYGTRTPYTGSEVFLSLVDQYEAPYPENLRHITITAMVTNRDLPCLIARNGRDDLTVDAAIPVAGVGLIRPPRSPQPPMAEREMAWRLIRQLSFNYLPLADLDHRTGGQALRDLLNLFIPAHDSPQSRQVRSLIGCKTTPVTRRLPGSGLLVYGRGVSCELTVDEEGFSGISPYLFGLVLEHYIARHVSINTFSQMTLHSMQRGKIMTWPVRAGQRGSV | not soluble
VGKEKMPVELYHAGEEITQLVREFATDKMKKAVQTFEKLERMENMDRVKEETLAHFEETLEDFEDFVGDIEEVLQDIIKEEVRKLIVHENVRPDNRKLEEIRP | not soluble
MLRIAFASALRFVRRHSSVLQADFEGGVSQSHISRLERGESSVTLERLEEIAAHLNVHPLSLIALTWGASEQIPPAELLERVRRELESVEGLLRPIAIDDQPAVHPRIIEAEKVRNEVQRLKALGHTKAEISRLMGIAKSTAARHW | not soluble
MFSISLLSCLFLGTVPALAQTGGERRLSPEKSEIWGPGLKAHVVLPVRYFYIRAVDTSGEQFTSSPGEKVFQVKISAPDEQFTRVGVQVLDRKDGSFIVRYRMYASYRNLKIEVKHHGQHVAESPYVLRGPVYHENCDCPLEDSAAWLREMNCSETISQIQKDLAHFPTVDPEKIAAEIPKRFGQRQSLCHYTLKDNKVYIKTHGEHVGFRIFMDAILLSLTRKVRMPDVEFFVNLGDWPLEKKKSNSNIQPIFSWCGSTESRDIVMPTYDLTDSVLETMGRVSLDMMSVQANTGPPWESKNSTAVWRGRDSRKERLELVKLSRKHPELIDAAFTNFFFFKHDESLYGPIVKHISFFDFFKHKYQINIDGTVAAYRLPYLLVGDSVVLKQDSIYYEHFYNELQPWKHYIPVKSNLSDLLEKLKWAKEHDAEAKKIAKAGQEFARNNLMGDDIFCYYFKLFQGYANLQVSEPQIREGMKRVEPQSEDDLFPCTCHRRKAKDEL | soluble
GPGSMVSTRETLSVEEQRYLDQELPPRELLTSLRSRDRSPTDDNETDVTVPGDSFGIMRNRVAFYKPVPRDVYSGELGECFPEGCHPLRCVNPATLHHLSERFGVSIREAVKAMQNAQMDINIAIDELCRRKCIDPPAGSFGLVGLESYASETFCLVNFTLPSLEATRDDDVLDALHELTLSAAEIPLDTPTEDLVDKFVNNWTVEDGRSCKDVLDMYDLGVNKIVLLPHGDYSVEGFYVLHPVKEDTPNIGTGAAACCLDLRTGIHNRFRFHVERIADSVSEHVIRELVHYGQDVHVLRQAYWFKPEYSVEEYIRFKESLLQPSASVFEMRYAVLAVGSYALPGYRNLVEMEKLKVAQHKYEKHYEDFMSPGKWLTSDNSQLQTVAAGGGNAPGAALHMHTNGPDVALNAMETRAGPLRRTLETSIQAHGDRVFSRFYRNNHH | not soluble
MVRVDQNLFNEVMYLLDELSQDITVPKNVRKVAQDSKAKLSQENESLDLRCATVLSMLDEMANDPNVPAHGRTDLYTIISKLEALS | soluble
MKVSLAGQTVDVKKILNEIPKRTVTAALLEGGEIVAVEEADDEHAERKLVRRHDVEGKVVFVTARPCLYCARELAEAGVAGVVYLGRGRGLGPYYLARSGVEVVEVHPDEPLGYDPVDRLDVLLTFGGNPYLTEEDVAARVYCLLTGRGFDADIAPAPENLSGRVEIMVTRGDPDEAVELLKEELPVFRIRRFLISGEFDRDELRERILEDIEPRILDPFAVRARIARAGAFSSSREAEVFIGDVLTSVGREVNLNDPRTVVTVDVLGPRVSVGVEKR | soluble
MPDTSFSNPGLFTPLQLGSLSLPNRVIMAPLTRSRTPDSVPGRLQQIYYGQRASAGLIISEATNISPTARGYVYTPGIWTDAQEAGWKGVVEAVHAKGGRIALQLWHVGRVSHELVQPDGQQPVAPSALKAEGAECFVEFEDGTAGLHPTSTPRALETDEIPGIVEDYRQAAQRAKRAGFDMVEVHAANACLPNQFLATGTNRRTDQYGGSIENRARFPLEVVDAVAEVFGPERVGIRLTPFLELFGLTDDEPEAMAFYLAGELDRRGLAYLHFNEPDWIGGDITYPEGFREQMRQRFKGGLIYCGNYDAGRAQARLDDNTADAVAFGRPFIANPDLPERFRLGAALNEPDPSTFYGGAEVGYTDYPFLDNGHDRLG | soluble
